No end group written: not given here. *: point of attachment. 5FAM = O=C1OC2(c3ccc(O)cc3Oc3cc(O)ccc32)c2ccc(C(=O)*)cc21
B1: NEMOw (domain or fragment)
chain: GSWEQGAPETLQRCLEENQELRDAIRQSNQILRERCEELLHFQASQREEKEFLMCKFQEARKLVERLGLEKL
B2: NEMOwDcc (designed binder)
chain: GSWSVKELEDKNEELLSEIAHLKNEVARLKKLLQRCLEENQELRDAIRQSNQILRERCEELLHFQASQREEKEFLMCKFQEARKLVERLGLEKLELEDKNEELLSEIAHLKNEVARLKKLVGER
B3: 5′FAM-IKKβ_(KK/RR) (peptide, UniProt O14920 701-745, looked up)
chain: 5FAM-PARRSEELVAEAHNLCTLLENAIQDTVREQDQSFTALDWSWLQTE
modifications: not fully specified

How the values were obtained:
NEMOwNcc = NEMOwNcc (UniProt Q9Y6K9); experiment: non-reducing SDS-PAGE
5′FAM-IKKβ_(KK/RR) [1] = target: 5′FAM-IKKβ_(KK/RR) (UniProt O14920); experiment: fluorescence polarisation
NEMOwCcc = NEMOwCcc (UniProt Q9Y6K9); experiment: non-reducing SDS-PAGE
GST-NEMO(1–196) [2] = target: T1, GST-NEMO(1–196) (UniProt Q9Y6K9 1-196); experiment: fluorescence polarisation
non-reducing SDS-PAGE = target: the molecule itself; experiment: non-reducing SDS-PAGE
5′FAM-IKKβ_(KK/RR) [3] = target: B3; experiment: fluorescence polarisation
GST-NEMO(1–196) [4] = target: T1, GST-NEMO(1–196); experiment: fluorescence polarisation; remark: listed apart in the source
NEMOw = target: B1; experiment: fluorescence polarisation

In the case of “NEMOwNcc (from UniProt Q9Y6K9 51-112) (designed binder)”, the stoichiometry N (NEMOwNcc) is reported as 2 and the Kd (5′FAM-IKKβ_(KK/RR) [1]) is reported as 0.98 µM.

Work on “NEMOwCcc (from UniProt Q9Y6K9 44-112) (designed binder)” yielded a stoichiometry N (NEMOwCcc) of 2 and a Kd (5′FAM-IKKβ_(KK/RR) [1]) of 0.15 µM.

In the case of PARRSEELVAEAHNLCTLLENAIQDTVREQDQSFTALDWSWLQTE (peptide, UniProt O14920 701-745, looked up) [IKKβ_(KK/RR)], the IC50 (GST-NEMO(1–196) [2]) is reported as 0.167 ± 0.003 µM.

B1 was tested, and the “stoichiometry N” value (non-reducing SDS-PAGE) was 2.

Molecule B2 has a Kd (5′FAM-IKKβ_(KK/RR) [3]) of 0.114 ± 0.003 µM.

B3 was tested, and the Kd (GST-NEMO(1–196) [4]) was 0.168 ± 0.004 µM and the Kd (NEMOw) was roughly 10 µM.

— publication PMC4222529 (Biochemistry, 2014)
